Reference: patent US20130330346A1 (Novartis, published 2013)
Residue numbers refer to the chain shown, from its start. Like-named read-outs stand apart in the source and are kept apart here. Ends that are not written are not given here.

T1: Cynomolgus CXCR2 (cynomolgus, UniProt Q28519 3-353 (rhesus entry))
T1 chain: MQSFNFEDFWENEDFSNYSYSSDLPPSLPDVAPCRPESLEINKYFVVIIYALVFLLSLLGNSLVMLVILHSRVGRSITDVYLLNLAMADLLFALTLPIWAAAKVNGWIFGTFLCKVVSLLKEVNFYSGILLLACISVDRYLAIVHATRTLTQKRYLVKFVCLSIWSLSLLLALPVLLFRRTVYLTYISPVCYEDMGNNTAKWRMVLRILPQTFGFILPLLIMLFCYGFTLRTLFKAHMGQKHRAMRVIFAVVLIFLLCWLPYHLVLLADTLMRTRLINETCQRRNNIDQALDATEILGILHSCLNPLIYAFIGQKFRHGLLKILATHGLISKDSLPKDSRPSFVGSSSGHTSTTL

T2: Human CXCR2 (human, UniProt P25025 1-360)
T2 sequence: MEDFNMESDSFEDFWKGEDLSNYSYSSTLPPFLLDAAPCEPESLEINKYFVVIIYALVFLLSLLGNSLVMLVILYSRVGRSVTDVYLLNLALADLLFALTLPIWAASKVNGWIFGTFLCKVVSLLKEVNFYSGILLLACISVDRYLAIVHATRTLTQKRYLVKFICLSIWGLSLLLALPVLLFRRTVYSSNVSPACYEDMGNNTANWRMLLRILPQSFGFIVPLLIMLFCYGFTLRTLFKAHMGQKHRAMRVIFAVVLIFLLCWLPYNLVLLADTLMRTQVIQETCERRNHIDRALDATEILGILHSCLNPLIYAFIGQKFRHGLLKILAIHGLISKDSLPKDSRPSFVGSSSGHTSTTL

T3: Human 1to19 peptide (human)
T3 construct: First 19 N-terminal amino acids of human CXCR2, captured on neutravidin; also called human CXCR2 1 to19 peptide; 1-19 Nter peptide
T3 peptide: MEDFNMESDSFEDFWKGED-biotin

B1: CXCR20035 (other)
chain: EVQLVESGGGLVQAGGSLTLSCAVSGSTFRINTMGWYRRAPGKQRELVAARDRGGYINYVDSVKGRFTVSRDNAKPTMYLQMNSLKPEDTAVYYCHAGTQDRTGRNFDRWGQGTQVTVSSGGGGSGGGGSGGGGSGGGGSGGGGSGGGGSGGGGSEVQLVESGGGLVQPGGSLRLSCVASGRIFSSNAMGWFRQAPGKEREFVAAITWRSGGSAYYADSAKGRFTISRDNAKNTVYLQMNSLKPEDTAVYYCAAGGSSWLSFPPDYWGQGTQVTVSS
notes: Biparatopic: two VHH joined by a GlySer linker; also called 54B12-35GS-163E3; 54B12-163E3; not shown: C-terminal c-myc tag and His6 tag coded by pAX100
B2: CXCR20026 (bispecific antibody)
chain: EVQLVESGGGLVQPGGSLRLSCVASGRIFSSNAMGWFRQAPGKEREFVAAITWRSGGSAYYADSAKGRFTISRDNAKNTVYLQMNSLKPEDTAVYYCAAGGSSWLSFPPDYWGQGTQVTVSSGGGGSGGGGSGGGGSGGGGSGGGGSGGGGSGGGGSEVQLVESGGGLVQAGESLRLSCAASGSTFDFKVMGWYRQPPGKQREGVAAIRLSGNMHYAESVKGRFTISKANAKNTVYLQMNSLRPEDTAVYYCKVNIRGQDYWGQGTQVTVSS
notes: Biparatopic: two VHH joined by a GlySer linker; also called 163E3-35GS-127D1; 163E3-127D1; not shown: C-terminal c-myc tag and His6 tag coded by pAX100
B3: CXCR20020 (bispecific antibody)
chain: EVQLVESGGGLVQAGESLRLSCAASGSTFDFKVMGWYRQPPGKQREGVAAIRLSGNMHYAESVKGRFTISKANAKNTVYLQMNSLRPEDTAVYYCKVNIRGQDYWGQGTQVTVSSGGGGSGGGGSGGGGSGGGGSGGGGSGGGGSGGGGSEVQLVESGGGLVQAGGSLRLSCAASGRTFSDYAMGWFRQAPGKEREFVAAITWNGGRVFYTASVKGRFTISRDNAKNTMYLQMNSLKPEDTAVYYCAADKDRRTDYLGHPVAYWGQGTQVTVSS
notes: Biparatopic: two VHH joined by a GlySer linker; also called 127D1-35GS-163D2; 127D1-163D2; not shown: C-terminal c-myc tag and His6 tag coded by pAX100
B4: CXCR20014 (bispecific antibody)
chain: EVQLVESGGGLVQPGGSLRLSCVASGSIVRINTMGWYRQTPGKQRELVADITSGGNINYIDAVKGRFTISRDNTKNTVYLQMNSLKPEDTAVYYCNAEIVVLVGVWTQRARTGNYWGQGTQVTVSSGGGGSGGGGSGGGGSGGGGSGGGGSGGGGSGGGGSEVQLVESGGELVQPGGSLRLSCAASGSILTINAMGWYRQAPGKQRELVVRRTRGGSTTYQDSVKGRFTISADIAKKTMYLQMNSLKPEDTAVYYCMLDDRGGVYWGQGTQVTVSS
notes: Biparatopic: two VHH joined by a GlySer linker; also called 97A9-35GS-2B2; 97A9-2B2; not shown: C-terminal c-myc tag and His6 tag coded by pAX100
B5: CXCR20059 (VHH)
VHH: EVQLLESGGGLVQPGGSLRLSCAASGSILTINAMGWYRQAPGKQRELVVRRTRGGSTTYQDSVKGRFTISADISKKTMYLQMNSLRPEDTAVYYCLLDDRGGVYWGQGTLVTVSS
B6: 2B2 (VHH)
VHH: B5 VHH with L5V, G10E, S74A, R86K, L96M, L110Q
notes: Tested as periplasmic extract (pAX50) and as purified His6-tagged protein (pAX100); also called 002B02; not shown: C-terminal c-myc tag and His6 tag coded by the vector
B7: CXCR20063 (VHH)
VHH: B5 VHH with K76N

Experiments:
[1] = target: T1, Cynomolgus CXCR2; experiment: cell-based or functional assay
[2] = target: T2, Human CXCR2; experiment: cell-based or functional assay
[3] = target: T2, Human CXCR2; experiment: cell-based or functional assay; remark: listed apart in the source
[4] = target: T1, Cynomolgus CXCR2; experiment: cell-based or functional assay
[5] = target: T2, Human CXCR2; experiment: cell-based or functional assay; remark: listed apart in the source
[6] = target: T1, Cynomolgus CXCR2; experiment: FACS competition vs 3 nM FMAT-Blue Gro-α
Procedure: (§1) Multivalent anti-CXCR2Nanobodies were titrated against 3 nM FMAT-Blue-labeled Gro-α in the FACS ligand competition assay on human and cynomolgus CXCR2 (Table 14). On human CXCR2, blocking potencies range between double digit nM and sub-nM whereas on cynomolgus CXCR2, they range between single and double digit nM.

[7] = target: T2, Human CXCR2; experiment: FACS competition vs 3 nM FMAT-Blue Gro-α
Procedure: as §1

[8] = target: T2, Human CXCR2; experiment: cell-based or functional assay; remark: listed apart in the source
[9] = target: T1, Cynomolgus CXCR2; experiment: FACS hGro-α competition
[10] = target: T2, Human CXCR2; experiment: FACS hGro-α competition
[11] = target: T1, Cynomolgus CXCR2; experiment: cell-based or functional assay
[12] = target: T2, Human CXCR2; experiment: cell-based or functional assay; remark: listed apart in the source
[13] = target: T1, Cynomolgus CXCR2; experiment: cell-based or functional assay
[14] = target: T2, Human CXCR2; experiment: cell-based or functional assay; remark: listed apart in the source
[15] = target: T3, Human 1to19 peptide; experiment: ELISA, periplasmic extract on biotinylated peptide
Procedure: In another setup, periplasmic extracts were analyzed for binding to human 1 to 19 peptide by ELISA. MaxiSorb plates (Nunc, 430341) were coated for two hours with neutravidin followed by one hour blocking (PBS, 1% casein). Then 100 nM biotinylated human 1 to 19 peptide was added to these plates for one hour (PBS, 0.1% casein, 0.05% tween20) followed by one hour incubation with 10-fold dilutions of periplasmic extracts. Unbound periplasmic extracts were washed away (PBS supplemented with 0.05% tween20) and bound Nanobodies were detected using mouse anti-myc (Roche, 11667149001) followed by rabbit anti-mouse-HRP conjugate (Dakocytomation, P0260). Table 8 summarizes the ratios of the binding signals of anti-CXCR2Nanobodies over an irrelevant control Nanobody.

[16] = target: T1, Cynomolgus CXCR2; experiment: FACS competition vs 3 nM FMAT-Blue Gro-α
Procedure: as §1, with “Purified monovalent” for “Multivalent”, “10).” for “14).”

[17] = target: T2, Human CXCR2; experiment: FACS competition vs 3 nM FMAT-Blue Gro-α; remark: listed apart in the source
Procedure: as §1, with “Purified monovalent” for “Multivalent”, “10).” for “14).”

[18] = target: T1, Cynomolgus CXCR2; experiment: cell-based or functional assay
[19] = target: T2, Human CXCR2; experiment: cell-based or functional assay; remark: listed apart in the source
[20] = target: T2, Human CXCR2; experiment: FACS, periplasmic extract vs FMAT Blue Gro-α
Procedure: Periplasmic extracts (as described above) were analyzed on FACS for competition with Gro-α in binding to human CXCR2. 2×10⁵ cells were incubated with a ½ dilution of periplasmic extracts in FACS buffer (PBS+10% fetal bovine serum (Sigma, F7524)) for 30 minutes at 4° C. Then, an equal volume of 6 nM of FMAT Blue-labeled human Gro-α in FACS buffer was added and incubation was continued for another 30 minutes at 4° C. in the dark. Cells were then washed three times in FACS buffer and finally resuspended in FACS buffer. Dead cells were stained with propidium iodide (Sigma, P4170). Samples were then analyzed on a FACSarray (BD Biosciences).

Row | Binder | FLIPR % inhibition of max [1] [%] | FLIPR IC50 (GRO-α induced calcium release) [1] [nM] | FLIPR % inhibition of max [2] [%] | FLIPR IC50 (GRO-α induced calcium release) [2] [nM] | [35S]GTPγS % inhibition of max (ENA-78) [3] [%] | [35S]GTPγS % inhibition of max (GRO-α) [3] [%] | [35S]GTPγS % inhibition of max (IL-8) [3] [%] | [35S]GTPγS IC50 (ENA-78) [3] [nM] | [35S]GTPγS IC50 (GRO-α) [3] [nM] | [35S]GTPγS IC50 (IL-8) [3] [nM] | Cynomologus WBSC IC50 (rhGROα) [4] [nM] | Human WBSC IC50 (rhGROα) [5] [nM] | % inhibition of max [6] [%] | IC50 [6] [nM] | % inhibition of max [7] [%] | IC50 [7] [nM] | Human Chemotaxis IC50 (rhGROα) [5] [nM] | IC50 [9] [nM] | FLIPR hGro-α IC50 [11] [nM] | FLIPR hGro-α IC50 [12] [nM] | also measured
1 | B1 | 100 | 8.72 | 100 | 10.2 | 100 | 100 | 100 | 1.17 | 0.844 | 0.717 | 0.43 | 0.24 | 99 | 3.23 | 99 | 1 | – | – | – | – | –
2 | B2 | 100 | 9.1 | 100 | 12.3 | – | 100 | – | – | 0.809 | – | 0.26 | 0.165 | 99 | 1.82 | 99.5 | 0.9 | 0.14 | – | – | – | IC50 (M) at 5 nM GROα (inhibition of GRO-α, FIG. 2) [8]: 6.53e-10 M; IC50 (M) at 15 nM GROα (inhibition of GRO-α, FIG. 2) [8]: 1.98e-09 M; IC50 (M) at 150 nM GROα (inhibition of GRO-α, FIG. 2) [8]: 6.71e-08 M
3 | B3 | 100 | 1.64 | 100 | 6.98 | 100 | 100 | 100 | 0.707 | 0.634 | 0.619 | 0.12 | 0.17 | 98.5 | 1.78 | 100 | 0.99 | 0.143 | – | – | – | –
4 | B4 | 100 | 13.7 | 100 | 6.84 | 100 | 100 | 100 | 1.66 | 1.38 | 1.13 | 0.16 | 0.445 | 98.5 | 3.9 | 99.7 | 1.59 | 0.16 | – | – | – | –
5 | B5 | – | – | – | – | – | – | – | – | – | – | – | – | – | – | – | – | – | 19 | 19000 | 390 | IC50 [10]: 1.5 nM
6 | B6 | – | – | – | – | – | – | – | – | – | – | – | – | – | – | – | – | – | 35 | 24000 | 650 | IC50 [10]: 1.3 nM; FLIPR % inhibition max [13]: 100%; FLIPR IC50 (GRO-α induced calcium release) [13]: 3850 nM; FLIPR % inhibition max [14]: 100%; FLIPR IC50 (GRO-α induced calcium release) [14]: 441 nM; [35S]GTPγS % inhibition max (GRO-α) [14]: 71.3%; [35S]GTPγS IC50 (GRO-α) [14]: 103 nM; ratio of binding signal relative to blank control [15]: 58.6 ratio; % inhibition of max [16]: 64%; IC50 [16]: 31.6 nM; % inhibition of max [17]: 42.7%; IC50 [17]: 2.07 nM; Cynomologus WBSC IC50 (rhGROα) [18]: > 100 nM; Human Chemotaxis IC50 (GROα) [19]: 212 nM; Human WBSC IC50 (rhGROα) [19]: 29.5 nM; FACS Gro-α competition (% inhibition) [20]: 38.1%
7 | B7 | – | – | – | – | – | – | – | – | – | – | – | – | – | – | – | – | – | 54 | 24000 | 6100 | –
